How the values were obtained:
[1] = biological target: copper (Cu pull-down beads); experiment: copper pull-down, IB quantified; conditions: HEK293T cell lysate; mean+/-SD, n = 3; parent: est. 1.9; read off a plot
[2] = biological target: copper (Cu-charged NTA beads); experiment: NTA-copper bead pull-down of purified protein, IB quantified; conditions: 0.5 h at 4 °C; washed with NETN buffer (20 mm Tris-HCl (PH 8.0), 300 mm NaCl, 0.5% NP-40, 1 mm EDTA) 5 times; mean+/-SD, n = 3; parent: est. 2.4; read off a plot

Row | response [1] | response [2] | Substance
1 | 1 |  | HA‐TAK1 (from UniProt O43318) H154A
2 | 0.95 |  | HA‐TAK1 (from UniProt O43318) H154A; M196A
3 | 0.8 |  | HA‐TAK1 (from UniProt O43318) M196A
4 |  | 0.4 | TAK1-N H154A; M196A

Source: article PMC12713080
